Measurements as given in the DeepSol protein solubility set.

assay: soluble on expression in E. coli; label from the status in PepcDB or PDB records

Sequence	soluble on expression in E. coli
MIEKVLVVVIIGVVGAYAQGSCRTDQHEMTCRGKNSLHDLKKDQDYLEVDTLNVHQAKLDLTDDLVPDGINLSHLTLLNATDNQITRIGRRGFDKIRNMQFLYLSINQISHSQPDPFQALEKLKRLEMNDALDGNMEEKSDMLRNFFHSKNSFVHLAQIELNKNKIEGIYPKTFCGIQGLQRLELSNNRIPSFDFARTCLKELKALMLAGNLIQKIPADIWDFLPSLSSLDISNNPIDCDCATIRLLSGDDVVFLNQADTKCASPPELEGKRIFELSRDYCKTTRNPRGKASFFQFLVLFVIAVGSEFLF	not soluble
MIELKHVTFGYNKKQMVLQDINITIPDGENVGILGESGCGKSTLASLVLGLFKPVKGEIYLSDNAVLPIFQHPLTSFNPDWTIETSLKEALYYYRGLTDNTAQDQLLLQHLSTFELNAQLLTKLPSEVSGGQLQRFNVMRSLLAQPRVLICDEITSNLDVIAEQNVINILKAQTITNLNHFIVISHDLSVLQRLVNRIIVLKDGMIVDDFAIEELFNVDRHPYTKELVQAFSY	not soluble
MIELPVVPSASDRKSKPDWLRVKLPIGKEYTKLRALVDEHKLHTICQSGNCPNMGECWGAGTATFMILGNVCTRSCSFCAVATGRPTEYDIDEPKRVAEAVRLMNVKHCVITSVNRDELKDKGAEVWYQTVVRVKEESPQTTIETLIPDVKSDWASLERMISGGQEVVSHNMETVERLYRRVRPQAKYSRSLEEIQRIKAFGKRTKSGIMLGLGETKDEVLKAMDDLVAHGLDVLTLGQYLQPTKMHLEVAEFIHPDQFAEYKEIGLSKGLNYVESGPLVRSSYHAEKHI	not soluble
MIEPVLENVQPNSAASKAGLQAGDRIVKVDGQPLTQWVTFVMLVRDNPGKSLALEIERQGSPLSLTLIPESKPGNGKAIGFVGIEPKGKASPV	soluble
MIEYSSFVLDNGLKVFVHEDRTTSMAALNILYDVGSKDEVVTKTGFAHLFEHLMFGGSKHIPSYDEALQKAGGENNAFTSPDITNYYITIPANNIETAFWLESDRMMALSFDPKVLEVQRSVVIEEFKQRYLNQPYGDVWLKLRPLAYKEHSYKWATIGKEISHIEEATMDDVRDFFYSYYLPNNAYMVVAGNVTLEQVKKLSEKWFAPIPSGTRRKRNIP	not soluble
MIFKKEPKRYTVEDTIPYLRLLKSGICQLDEKHFSKSIAFQDINYQLALDEDRDLIFNQFANFLNSFDPSISIEFSYVNQLGRNEEMKSAIQIPDKKDGFDDIRFEFREMLKSQIVKGNNGLKKSKYVTFTVEADNLEQATSKLERLEIDILSNLKSMGVRAESLNGEERLKILHDVLNPNKTFEFSYKDLKKRESTKTYIVPDEFNFTPSRYFKFGKFIGATSHFQILASELSDRMLSEFLDIDDNINISFHIRAIDQSEAIKMVKRKNTDIDKMKIEENKKAVRSGYDMDILPSDLITYGEDVKSLLKDLQTRDERMFVVSIVFMNFARTVQKLDNTIAQISSIANKHNCKLKRLDHSQEQGLVSMLPLGVNKIEIDRGLTSSSTAVFMPFTTEELFINSSNSLYYGLNALSHNLIMADRKKLKNPNGLILGTPGSGKSFSAKREMANAILVTDDDVIICDPEGEYGNLVRQFKGEVIKVSSKSKDYLNPLDINMNYGDGDAPLKDKANFIMSMLELVVGGSGLTAEEKSVIDRCLPKIYEKYFEHPTPDNMPILQDLYDMLKGQEEKVGKKLATEMEIYVSGSLNVFNHRSNVDLNKKLLCFDIKELGSQLKKIGMLVIQDQVWNKVSQNRGNKATRYYIDEFHLLLKDEQTASYSVEIWKRFRKWGGIPTGITQNVKDLLMSKEIENIFDNTDFVLMLNQASGDREILARKLKISLPQLRYVTNSNEGEGLLFFGNTIVPFLDKFPKDTILYQKMTTKPEEVRLEHHHHHH	soluble
MIGCLPMMRSLERHAVILGLLRQQEHVTIEAMAAACDASLQTIRRDLNQLGEDGRVVRYHGGARLADHARSATYEVRSASHVREKVAAGQLLARFIPDGATLFIAGGSTLALAAQELRACEGLTIVTNNLHAAVTLYDKTGFDVCVLGGTMRPASGSMIGEEAVRMIERYSLDFAVIGTCGISPDGALLEYDQSLVPPLLAMISNARRTVLVADGSKFGAKGIVRAAPLSAVNHFVTDRAPEGRAADLLARTGVKVHHPANPNLSSQDAAADGRELEHHHHHH	not soluble
MIGDFWKESNGLATANDMDKNLAYMYTMKKKARGQLLFTKEKLAEYGSKVGLFPGVKDWFRRIRQYGADREVIIEHYIISSGLKEMIEGTSIAKDFKEIYATSFYFDDDGVAVWPAQVVNYTNKTQFLFRISKGVLNVNDEAVNDSFAPDEIRVPFHNMIYIGDSDTDIPCMKLVNSHGGYSIGVFNPKERNEEKAKKRVYKMIRDNRIGYF	not soluble
MIGELVKDKILIKNIEDARLIYKMGYYGKPIGISKPKSAEEINSELILSLIEGVYLVKKGKLEIVSNGERLDFERLYQIGVTQIPRFRILYSVYEDLREKGYVVRSGIKYGADFAVYTIGPGIEHAPYLVIALDENSQISSNEILGFGRVSHSTRKELILGIVNLTNGKIRYIMFKWLKM	soluble
MIGFIGSVFSPWYRWSGRKEPQNHCCLNVATYGPGGRFTMTDRGRAALRQSPDTLTVGPSRMHWTGTQLIVEVNEISSPPLVSPVKGRIVLTPTGITDVEVTLKDDGSHIWRPFAPTARIEVDLTQGHRWHGHGYFDANFGTAALEADFRFWTWGRYPVADGAACFYDATRRDGSRLELGLHVAADGRARLIQPPPEARFARSRWLVERHTPADPGTRPRQVMSMLDAPFYSRAMVETTVFGQKTVGVHEALDLRRFRSPLLMPMLAVRVPRRPGWSF	not soluble
MIGYPIVFRCCECTVEEQTMEHLESHIWSRHLQAFPFKCAYCDFPALSAISLMDHFAQNHSDVAIVEFKRNLEDEKRFRKMVADSIAIEIDETSQQDSSTQMTVLQPMMQQGTAQMILLPPEGSQYDEIVDHRGPDEDDFGVLDDDENIEELIDDDDDDDYIDELGNPVFIGAHDDSDYILEDDLSPQGPIRSSNNYHLKYIRTRRMDKLIDNVVVNATQRDSPEQEDCSTSGVAFADGQTNSGKMGRFSCDRCSRTFKYQSKLDEHRRTHLGVKPFQCHYCTRQFSQRGALKTHMRLHTGERPFVCQWECGKQFASSSAKSHHEKTHSGERPYICNVCGKSFTKNSHVIRHLKNIHNRELAQQDAMLRGDDVQSTDESLNIGSARSQMSDIEPRGKEIGVVHDIVEQIHEERKDFMRL	not soluble
MIHCDPFSINCFWENVIKFLQYDHSMFKIAITSVPARVDVSDLDRSLAYFLSDIGYIPKINPSTDMNSIKNSVYFRLFKECFLMNGERFWTPEELMSYLGTSRSTLYRHLNKLKYMDLLEEVKDGKIKKYRIRSGDILKAWSWVEINVKMAMDNYRSNVEHIVDLIRSNSNSNLRPLEHHHHHH	not soluble
MIHETAQIHPTSVVEEGAIIGANVKIGPFCFVDSKVEIGEGTELLSHVVVKGPTKIGRFNRIFQFASIGEACQDLKYAGEDTQLIIGDRNTIRESVTMHRGTVQDKGITIVGSDNLFMINAHVAHDCVIGDRCIFANNATLAGHVKVGNQAIVGGMSAIHQFCHIGDHCMLGGGSIVVQDVPPYVMAQGNHCAPFGINVEGLKRRGFDKAEIHAIRRAYKSLYRNGLTLEAAKAEIAQEAEQYPSVKLFLDFLEKSERGIIR	not soluble
MIIKPRIRGFICTTTHPVGCEANVKEQIAYTKAQGPIKNAPKRVLVVGASSGYGLSSRIAAAFGGGASTIGVFFEKEGTEKKPGTAGFYNAAAFEKLAREEGLYAKSLNGDAFSNEAKQKTIDLIKEDLGQVDMVVYSLASPVRKMPETGELIRSALKPIGETYTSTAVDTNKDVIIEASVEPATEEEIKDTVTVMGGEDWELWINALSDAGVLAEGCKTVAYSYIGTELTWPIYWDGALGKAKMDLDRAAKALNEKLGATGGSANVAVLKSVVTQASSAIPVMPLYIAMVFKKMREEGVHEGCMEQIYRMFSQRLYKEDGSAAEVDDMNRLRLDDWELREDIQQHCRELWPQITTENLKELTDYVEYKEEFLKLFGFGVEGVDYEADVNPAVETDFIQI	soluble
